Measurements published in doi:10.1101/2025.03.26.645558.

What was measured:
[1] = biological target: E. fergusonii BrxB WT (Escherichia fergusonii); assay: native MS; collected BrxB SEC peaks exchanged into 10 mM ammonium bicarbonate, 0.5 mg/ml, ES+-ToF MS (Xevo QToF)
[2] = biological target: E. fergusonii BrxB WT (Escherichia fergusonii); assay: SEC; analytical SEC of BrxB alone on Superdex 75 increase 10/300 GL, 10 μM, 20 mM Tris HCl pH 7.9, 150 mM NaCl; monomer and dimer

E. fergusonii BrxB WT (natural protein)
stoichiometry N [1]: 2
stoichiometry N [2]: 2
